Test results taken from patent US20220411483A1 (Chugai, published 2022).
Positions count from the first letter of the chain named. Numbers in names are those of the source.

T1: FcgRIIaR (human, UniProt P12318 34-217)
T1 construct: extracellular domain; also called FcγRIIa R type; FcγRIIa (R type)
T1 sequence (looked up): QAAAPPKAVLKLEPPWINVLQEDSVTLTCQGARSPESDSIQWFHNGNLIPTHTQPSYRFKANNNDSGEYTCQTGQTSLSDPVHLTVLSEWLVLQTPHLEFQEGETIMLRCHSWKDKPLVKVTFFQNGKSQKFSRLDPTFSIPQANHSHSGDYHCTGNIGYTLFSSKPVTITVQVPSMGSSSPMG

T2: FcgRIIaH (human, UniProt P12318 34-217)
T2 construct: extracellular domain; also called FcγRIIa H type
T2 sequence (looked up): T1 sequence (looked up) with R134H

T3: FcgRIIb (human, UniProt P31994 43-217)
T3 construct: extracellular domain; also called FcγRIIb
T3 sequence (looked up): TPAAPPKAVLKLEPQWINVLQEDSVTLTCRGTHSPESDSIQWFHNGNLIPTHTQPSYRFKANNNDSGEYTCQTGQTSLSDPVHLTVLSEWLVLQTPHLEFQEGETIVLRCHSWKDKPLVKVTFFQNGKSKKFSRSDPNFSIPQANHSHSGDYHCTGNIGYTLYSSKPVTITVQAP

T4: mouse FcγRI (mouse, UniProt P26151 25-297, limits assumed)
T4 construct: also called mFcγRI; mFc γ RI
T4 sequence (looked up): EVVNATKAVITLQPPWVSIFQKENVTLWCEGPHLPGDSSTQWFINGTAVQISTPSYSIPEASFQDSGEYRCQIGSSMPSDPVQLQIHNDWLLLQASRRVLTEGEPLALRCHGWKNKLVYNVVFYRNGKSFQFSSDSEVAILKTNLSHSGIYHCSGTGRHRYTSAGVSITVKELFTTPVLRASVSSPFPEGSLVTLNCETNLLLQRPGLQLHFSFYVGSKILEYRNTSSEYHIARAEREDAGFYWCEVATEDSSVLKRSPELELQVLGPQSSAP

T5: mouse FcγRIV (mouse, UniProt A0A0B4J1G0 21-203)
T5 construct: also called mFcγRIV; mFc γ RIV
T5 sequence: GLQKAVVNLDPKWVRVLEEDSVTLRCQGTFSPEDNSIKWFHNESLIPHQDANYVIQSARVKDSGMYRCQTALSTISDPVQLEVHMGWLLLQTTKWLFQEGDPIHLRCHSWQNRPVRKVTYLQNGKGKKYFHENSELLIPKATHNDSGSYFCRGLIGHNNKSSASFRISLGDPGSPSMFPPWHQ

B1: IL6R-P625/IL6R-L (antibody, human IgG1, kappa)
heavy: QVQLQESGPGLVKPSETLSLTCAVSGHSISHDHAWSWVRQPPGEGLEWIGFISYSGITNYNPSLQGRVTISRDNSKNTLYLQMNSLRAEDTAVYYCARSLARTTAMDYWGEGTLVTVSSASTKGPSVFPLAPSSKSTSGGTAALGCLVKDYFPEPVTVSWNSGALTSGVHTFPAVLQSSGLYSLSSVVTVPSSSLGTQTYICNVNHKPSNTKVDKKVEPKSCDKTHTCPPCPAPDKLGGDSVFLFPPKPKDTLMISRTPEVTCVVIDVAEEDGEVKFNWYVDGVEVHNAKTKPREEQYNSTYRVVSVLTVLHQDWLNGKEYKCKVSNKALPAPIEKTISKAKGQPREPQVYTLPPSRDELTKNQVSLTCLVKGFYPSDIAVEWESNGQPENNYKTTPPVLDSDGSFFLYSKLTVDKSRWQQGNVFSCSVMHEALHNHYTQKSLSLSP
light: not shown
B2: IL6R-P631/IL6R-L (antibody, human IgG1, kappa)
heavy: B1 heavy with K236L, D267N
light: not shown
B3: IL6R-P629/IL6R-L (antibody, human IgG1, kappa)
heavy: B1 heavy with K236L, G239K
light: not shown
B4: IL6R-P652/IL6R-L (antibody, human IgG1, kappa)
heavy: B1 heavy with K236L, G239D, A269Y, Y298D, A332R, P398M
light: not shown
B5: IL6R-P626/IL6R-L (antibody, human IgG1, kappa)
heavy: B1 heavy with K236R
light: not shown
B6: IL6R-P665/IL6R-L (antibody, human IgG1, kappa)
heavy: B1 heavy with K236L, G239D, Y298D, N299A, A332R, P398M
light: not shown
notes: also called IL6R-P665/1L6R-L
B7: IL6R-P636/IL6R-L (antibody, human IgG1, kappa)
heavy: B1 heavy with K236L, A269R
light: not shown
B8: IL6R-P702/IL6R-L (antibody, human IgG1, kappa)
heavy: B1 heavy with K236L, F243M, A269R
light: not shown
B9: IL6R-P699/IL6R-L (antibody, human IgG1, kappa)
heavy: B1 heavy with K236L, A269R, E270P
light: not shown
notes: Printed H238P read as H268P
B10: IL6R-P694/IL6R-L (antibody, human IgG1, kappa)
heavy: B1 heavy with K236L, A269R, Y298E
light: not shown
B11: IL6R-P712/IL6R-L (antibody, human IgG1, kappa)
heavy: B1 heavy with K236L, A269R, E270P, Y298E
light: not shown
B12: IL6R-P730/IL6R-L (antibody, human IgG1, kappa)
heavy: B1 heavy with K236L, G239Q, A269R, E270P, Y298E
light: not shown
B13: VH3/L (WT)-mIgG1-mF44 (antibody)
heavy: QVQLQESGPGLVKPSETLSLTCAVSGHSISHDHAWSWVRQPPGEGLEWIGFISYSGITNYNPSLQGRVTISRDNSKNTLYLQMNSLRAEDTAVYYCARSLARTTAMDYWGEGTLVTVSSAKTTPPSVYPLAPGSAAQTNSMVTLGCLVKGYFPEPVTVTWNSGSLSSGVHTFPAVLQSDLYTLSSSVTVPSSTWPSETVTCNVAHPASSTKVDKKIVPRDCGCKPCICTVPEVSSVFIFPPKPKDVLTITLTPKVTCVVVDISKDDPEVQFSWFVDDVEVHTAQTQPREEQFNSTFRSVSELPIMHQDWLNGKEFKCRVNSADFPAPIEKTISKTKGRPKAPQVYTIPPPKEQMAKDKVSLTCMITDFFPEDITVEWQWNGQPAENYKNTQPIMDTDGSYFVYSKLNVQKSNWEAGNTFTCSVLHEGLHNHHTEKSLSHSPGK
light: not shown
B14: VH3/L (WT)-mIgG1 (antibody)
heavy: B13 heavy with D323A
light: not shown
notes: mouse IgG1 constant region

The binders below were run against T6, FcgRIa (human, UniProt P12314 16-292) (assay: SPR (Biacore)).
T6 construct: also called FcγRIa; FcγRI
T6 sequence (P12314 16-292): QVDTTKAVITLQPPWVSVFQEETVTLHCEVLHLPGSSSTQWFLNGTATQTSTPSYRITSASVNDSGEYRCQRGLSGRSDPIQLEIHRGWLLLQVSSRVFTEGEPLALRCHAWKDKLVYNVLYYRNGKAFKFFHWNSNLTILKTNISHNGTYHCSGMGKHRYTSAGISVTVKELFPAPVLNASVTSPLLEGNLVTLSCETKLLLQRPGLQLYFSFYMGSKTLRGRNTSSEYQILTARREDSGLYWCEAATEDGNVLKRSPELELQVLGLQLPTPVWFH

Binder	Relative FcgRIa-binding Activity
B1	0.0007 KD(G1d)/KD(variant)
B2	0.03 KD(G1d)/KD(variant)
B3	0.1 KD(G1d)/KD(variant)
B4	0.0005 KD(G1d)/KD(variant)
B5	0.0004 KD(G1d)/KD(variant)
B6	0.0002 KD(G1d)/KD(variant)
B7	0.0007 KD(G1d)/KD(variant)

These binders were tested against T1, FcgRIIaR (assay: SPR (Biacore)).

Binder	Relative FcgRIIaR-binding Activity
B1	0.051 KD(G1d)/KD(variant)
B2	0.048 KD(G1d)/KD(variant)
B3	0.047 KD(G1d)/KD(variant)
B4	0.051 KD(G1d)/KD(variant)
B5	0.041 KD(G1d)/KD(variant)
B6	0.025 KD(G1d)/KD(variant)
B7	0.023 KD(G1d)/KD(variant)

What follows are binders tested against T2, FcgRIIaH (assay: SPR (Biacore)).

Binder	Relative FcgRIIaH-binding Activity
B1	0.005 KD(G1d)/KD(variant)
B2	0.01 KD(G1d)/KD(variant)
B3	0.01 KD(G1d)/KD(variant)
B4	0.006 KD(G1d)/KD(variant)
B5	0.005 KD(G1d)/KD(variant)
B6	0.002 KD(G1d)/KD(variant)
B7	0.006 KD(G1d)/KD(variant)

The binders below were run against T3, FcgRIIb (assay: SPR (Biacore)).

Binder	Relative FcgRIIb-binding Activity
B1	3.06 KD(G1d)/KD(variant)
B2	1.16 KD(G1d)/KD(variant)
B3	7.97 KD(G1d)/KD(variant)
B4	4.18 KD(G1d)/KD(variant)
B5	1.9 KD(G1d)/KD(variant)
B6	1.6 KD(G1d)/KD(variant)
B7	1.77 KD(G1d)/KD(variant)

What follows are binders tested against T7, FcgRIIIaV (human, UniProt P08637 17-208) (assay: SPR (Biacore)).
T7 construct: extracellular domain; also called FcγRIIIa V type
T7 sequence (P08637 17-208 F176V): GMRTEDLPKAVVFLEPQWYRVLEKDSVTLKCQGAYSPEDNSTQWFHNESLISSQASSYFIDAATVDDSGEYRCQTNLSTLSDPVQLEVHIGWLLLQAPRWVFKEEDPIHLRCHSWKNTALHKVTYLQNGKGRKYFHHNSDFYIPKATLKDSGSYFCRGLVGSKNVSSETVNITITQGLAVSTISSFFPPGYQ

Binder	Relative FcgRIIIaV-binding Activity
B1	0.005 KD(G1d)/KD(variant)
B2	0.007 KD(G1d)/KD(variant)
B3	0.007 KD(G1d)/KD(variant)
B4	0.005 KD(G1d)/KD(variant)
B5	0.005 KD(G1d)/KD(variant)
B6	0.005 KD(G1d)/KD(variant)
B7	0.008 KD(G1d)/KD(variant)

Target: T6, FcgRIa
Test: SPR (Biacore)
Remark: another data set of the same source

Binder	Relative FcgRIa-binding Activity
B8	0.0006 KD(G1d)/KD(variant)
B9	0.0005 KD(G1d)/KD(variant)
B10	0.0008 KD(G1d)/KD(variant)
B11	0.0005 KD(G1d)/KD(variant)
B12	0.0002 KD(G1d)/KD(variant)

Target: T1, FcgRIIaR
Test: SPR (Biacore)
Remark: another data set of the same source

Binder	Relative FcgRIIaR-binding Activity
B8	0.023 KD(G1d)/KD(variant)
B9	0.022 KD(G1d)/KD(variant)
B10	0.02 KD(G1d)/KD(variant)
B11	0.017 KD(G1d)/KD(variant)
B12	0.013 KD(G1d)/KD(variant)

Target: T2, FcgRIIaH
Test: SPR (Biacore)
Remark: another data set of the same source

Binder	Relative FcgRIIaH-binding Activity
B8	0.006 KD(G1d)/KD(variant)
B9	0.004 KD(G1d)/KD(variant)
B10	0.005 KD(G1d)/KD(variant)
B11	0.003 KD(G1d)/KD(variant)
B12	0.003 KD(G1d)/KD(variant)

Target: T3, FcgRIIb
Test: SPR (Biacore)
Remark: another data set of the same source

Binder	Relative FcgRIIb-binding Activity
B8	1.27 KD(G1d)/KD(variant)
B9	1.26 KD(G1d)/KD(variant)
B10	1.83 KD(G1d)/KD(variant)
B11	1.52 KD(G1d)/KD(variant)
B12	0.504 KD(G1d)/KD(variant)

Target: T7, FcgRIIIaV
Test: SPR (Biacore)
Remark: another data set of the same source

Binder	Relative FcgRIIIaV-binding Activity
B8	0.008 KD(G1d)/KD(variant)
B9	0.005 KD(G1d)/KD(variant)
B10	0.007 KD(G1d)/KD(variant)
B11	0.004 KD(G1d)/KD(variant)
B12	0.005 KD(G1d)/KD(variant)

The binders below were run against T1, FcgRIIaR (assay: SPR, amount bound per captured antibody).

Binder	Relative FcgRIIaR-binding Activity
B1	26.8 IL6R-G1d/IL6R-L=100
B2	26.7 IL6R-G1d/IL6R-L=100
B3	29.9 IL6R-G1d/IL6R-L=100
B4	27.5 IL6R-G1d/IL6R-L=100
B5	24.4 IL6R-G1d/IL6R-L=100
B6	15 IL6R-G1d/IL6R-L=100
B7	13.8 IL6R-G1d/IL6R-L=100

What follows are binders tested against T3, FcgRIIb (assay: SPR, amount bound per captured antibody).

Binder	Relative FcgRIIb-binding Activity
B1	141 IL6R-G1d/IL6R-L=100
B2	110 IL6R-G1d/IL6R-L=100
B3	164 IL6R-G1d/IL6R-L=100
B4	149 IL6R-G1d/IL6R-L=100
B5	129 IL6R-G1d/IL6R-L=100
B6	121 IL6R-G1d/IL6R-L=100
B7	120 IL6R-G1d/IL6R-L=100

These binders were tested against T4, mouse FcγRI (assay: SPR (Biacore), method of Reference Example 2).
Description: (§1) The binding activities of these antibodies to the mouse FcγRs were evaluated by the method of Reference Example 2.

Binder	binding result
B13	no binding
B14	no binding

These binders were tested against T5, mouse FcγRIV (assay: SPR (Biacore), method of Reference Example 2).
Description: as §1

Binder	binding result
B13	no binding
B14	no binding
